{"source": "patent US6132750A", "about": "(Coletica, priority 1998, dated 2000)", "molecules": {"B1": {"name": "Lactoferrin (protein, UniProt P02788 20-710, looked up)", "Lactotransferrin": "GRRRSVQWCAVSQPEATKCFQWQRNMRKVRGPPVSCIKRDSPIQCIQAIAENRADAVTLDGGFIYEAGLAPYKLRPVAAEVYGTERQPRTHYYAVAVVKKGGSFQLNELQGLKSCHTGLRRTAGWNVPIGTLRPFLNWTGPPEPIEAAVARFFSASCVPGADKGQFPNLCRLCAGTGENKCAFSSQEPYFSYSGAFKCLRDGAGDVAFIRESTVFEDLSDEAERDEYELLCPDNTRKPVDKFKDCHLARVPSHAVVARSVNGKEDAIWNLLRQAQEKFGKDKSPKFQLFGSPSGQKDLLFKDSAIGFSRVPPRIDSGLYLGSGYFTAIQNLRKSEEEVAARRARVVWCAVGEQELRKCNQWSGLSEGSVTCSSASTTEDCIALVLKGEADAMSLDGGYVYTAGKCGLVPVLAENYKSQQSSDPDPNCVDRPVEGYLAVAVVRRSDTSLTWNSVKGKKSCHTAVDRTAGWNIPMGLLFNQTGSCKFDEYFSQSCAPGSDPRSNLCALCIGDEQGENKCVPNSNERYYGYTGAFRCLAENAGDVAFVKDVTVLQNTDGNNNEAWAKDLKLADFALLCLDGKRKPVTEARSCHLAMAPNHAVVSRMDKVERLKQVLLHQQAKFGRNGSDCPDKFCLFQSETKNLLFNDNTECLARLHGKTTYEKYLGPQYVAGITNLKKCSTSPLLEACEFLRK", "notes": "chelating agent conventionally used in cosmetics for trapping iron"}}, "assay": "Inhibition of the Fe2+ induced radical degradation of hyaluronic acid (viscosity drop)", "experimental": "The chelating microspheres prepared according to I2 are used to evaluate their capacity, via the trapping of ferrous iron Fe2+, to inhibit the radical degradation of hyaluronic acid, glycosarinoglycan implied in the moisturisation of the human dermis, which is therefore a particularly important target to protect in cosmetic and dermo-pharmaceutical applications.\nA 10 g/l solution of hyaluronic acid of high molecular weight (>1,000,000g/mol or Daltons) is prepared in demineralised water. To this solution is added an amount of Fe2+ of 620 ppm.\nOther chelating agents which are conventionally used in cosmetics were used and compared to the chelating microspheres, for their capacity to reduce the radical degradation of hyaluronic acid. Indices of protection, expressed in % of protection, are calculated by carrying out a ratio of the drop in viscosity observed by the presence of iron Fe2+ (620 ppm) in the presence of the chelating agent studied, and the drop in viscosity observed with and without iron Fe2+."}
{"molecule": "B1", "values": [{"measurement": "Index of protection (%)", "setting": "concentration used 133 mg/l, hyaluronic acid 10 g/l, Fe2+ 620 ppm", "value": 25, "unit": "%"}, {"measurement": "effect on the depolymerisation (radical cleavage) of hyaluronic acid in the presence of iron", "setting": "in words", "value": "accelerated"}]}
